Results on 1 protein are retold here after paper PMC2789240, “Comparative structural, kinetic and inhibitor studies of Trypanosoma brucei trypanothione reductase with T. cruzi^☆” (Molecular and Biochemical Parasitology, 2010).

The term stoichiometry N denotes the number of molecules, sites or subunits per partner or assembly.

The data set deals with the molecule itself. The experiment in a line: SEC; 600 ug TbTryR on Superdex 200 10/300, 25 mM HEPES pH 7.5, 100 mM NaCl; mass from BioRad gel filtration standards; data not shown. (In general: Size exclusion chromatography separates by hydrodynamic size, large species first.)

B1: Trypanosoma brucei brucei trypanothione reductase (enzyme, T. b. brucei, UniProt P39051 1-492, looked up)
chain: MSKIFDLVVIGAGSGGLEAGWNAATLYKKRVAVIDVQTHHGPPHYAALGGTCVNVGCVPKKLMVTGAQYMDHLRESAGFGWEFDGSSVKANWKKLIAAKNEAVLDINKSYEGMFNDTEGLDFFLGWGSLESKNVVVVRETADPKSAVKERLQADHILLATGSWPQMPAIPGVEHCISSNEAFYLPEPPRRVLTVGGGFISVEFAGIFNAYKPPGGKVTLCYRNNLILRGFDETIREEVTKQLTANGIEIMTNENPAKVSLNTDGSKHVTFESGKTLDVDVVMMAIGRIPRTNDLQLGNVGVKLTPKGGVQVDEFSRTNVPNIYAIGDITDRLMLTPVAINEGAALVDTVFGNKPRKTDHTRVASAVFSIPPIGTCGLIEEVAAKEFEKVAVYMSSFTPLMHNISGSKYKKFVAKIVTNHSDGTVLGVHLLGDGAPEIIQAVGVCLRLNAKISDFYNTIGVHPTSAEELCSMRTPSYYYLKGEKMETLPESSL
notes: Trypanothione reductase, T. b. brucei strain S427 (MITat 1.4); complete open reading frame amplified from start to stop codon; identical at the amino acid level to genome strain 927 (GeneDB Tb10.406.0520) and to T. b. gambiense TryR; calculated subunit mass 53,156 Da; Flavoprotein: each subunit carries 1 FAD (and 1 NADPH in the crystal); In the crystal model the first residue and the last 2 …
B1: the “stoichiometry N” value turned out to be 2.
